Test results: US20160046723A1 (BIONOMICS, published 2016)
Where a chain is given by its changes, count along the chain named.

What was measured:
[1] = target: T1, recombinant human LGR4 ectodomain-IgG-Fc fusion (R&D Systems) (human, UniProt Q9BXB1 25-540, limits assumed); experiment: BLI (Octet QK), biotinylated antibody on streptavidin tips, LGR4-Fc 5-80 nM in solution, 1:1 global fit, 30 degrees
T1 construct: Bought construct; also called Human LGR4-Fc; LGR4-Fc; not shown: IgG Fc; detected with anti-human IgG Fc antibody
Experimental: (§1) Binding kinetics of LGR4 antibodies to human and mouse LGR4 were determined using label-free plate-based Octet QK instrument (Pall ForteBio, LLC, Menlo Park, Calif.) at 30 degrees. Biotinylated 1C5 and 8F3 LGR4 antibodies were diluted to 5 μg/mL in 1×PBS and immobilized on streptavidin tips (Pall ForteBio, LLC, Menlo Park, Calif.). Plate shaking speed was 1000 rpm. The antibodies were captured on the tips for 150 sec. To establish a baseline, the tips were transferred into wells containing binding buffer (1×PBS, supplemented with 0.1% bovine serum albumin and 0.05% Tween 20) for 60 sec. Human LGR4-Fc (R&D Systems) and mouse LGR4-Fc (R&D Systems) were diluted in binding buffer to 80 nM, 40 nM, 20 nM, 10 nM, 5 nM to make a concentration series. Additionally, a buffer-only well was used as reference. 1C5 and 8F3-coated tips were transferred into wells containing human LGR4 and mouse LGR4 dilution series for 180 sec to measure receptor association. The tips were then dipped into binding buffer for 300 sec to measure receptor dissociation.
(§2) Data were collected using ForteBio Data Acquisition software v7.1 and analyzed using ForteBio Data Analysis software v7.1. Data were referenced by subtracting signal from the buffer sample, and fitted to a 1:1 binding model using global fitting with unlinked Rmax. The experiment was repeated three times. Sample curve fits, kinetic rate constants, and KD for 1C5 and 8F3 LGR4 antibodies are shown below in Table 5.

[2] = target: T2, recombinant mouse LGR4 ectodomain-IgG-Fc fusion (R&D Systems) (mouse, UniProt A2ARI4 25-540, limits assumed); experiment: as above
T2 construct: extracellular domain; Bought construct; also called mouse LGR4-Fc; murine LGR4; not shown: IgG Fc
Experimental: as §1, §2

[3] = target: T1, recombinant human LGR4 …; experiment: ELISA, plate coated with 0.5 ug/mL hLGR4-Fc, biotinylated antibody detected with streptavidin-HRP
Experimental: (§3) Binding of the anti-LGR4 antibodies to human and murine LGR4 was assessed in vitro using an ELISA-based plate binding assay. The assay measured biotinylated antibody binding to ELISA plate-bound purified recombinant, LGR4 ectodomain-IgG-Fc fusion, with detection of LGR4-bound antibody with horseradish peroxidase-conjugated streptavidin. […] Binding data from two of the antibodies, 8F3 and 1C5 are shown in FIGS. 5A and 5B, respectively.

[4] = target: T2, recombinant mouse LGR4 …; experiment: ELISA, plate coated with 0.5 ug/mL mLGR4-Fc, biotinylated antibody detected with streptavidin-HRP
Experimental: as §3

[5] = target: T1, recombinant human LGR4 …; experiment: BLI (Octet QK), biotinylated antibody on streptavidin tips, LGR4-Fc in solution, 1:1 global fit
Experimental: as §1, §2

[6] = target: T2, recombinant mouse LGR4 …; experiment: as above
Experimental: as §1, §2

[7] = target: T1, recombinant human LGR4 …; experiment: BLI (Octet QK), biotinylated antibody on streptavidin tips, LGR4-Fc in solution; exponent as printed (E+04), KD fits E-04
Experimental: as §1
as §2, with “Sample curve fits, kinetic rate constants, and KD for 1C5 and 8F3 LGR4 antibodies are shown below in Table 5.” left out

[8] = target: T3, human LGR4 on the cell surface (recombinant on CHO cells; endogenous on HEK-293T cells) (human, UniProt Q9BXB1 25-951); experiment: flow cytometry on CHO-LGR4 cells, PE anti-rat IgG secondary
T3 construct: also called CHO-LGR4; GPR48
Experimental: (§4) A flow cytometry-based assay was used to measure the binding of purified anti-LGR4 antibodies 1C5 and 8F3 to recombinant human LGR4 protein overexpressed on the surface of CHO cells. CHO and CHO-LGR4 cells were stained with serial dilutions of anti-LGR4 antibodies at 4° C. Surface staining was detected with PE-conjugated anti-rat IgG secondary antibodies and analyzed on the FACSCalibur (FIG. 4A and FIG. 4B). […] An antibody control (pooled rat IgG) was used as a negative isotype control in these experiments as well as wild-type CHO without LGR4.

[9] = target: T3, human LGR4 on the cell surface …; experiment: flow cytometry on CHO-LGR4 cells, PE anti-rat IgG secondary [printed FIB. 4B]
Experimental: as §4

[10] = target: T1, recombinant human LGR4 …; experiment: BLI (Octet QK); receptor printed 'Human LGR4' a second time for 8F3, possibly mouse LGR4
Experimental: as §1
as §2, with “Sample curve fits, kinetic rate constants, and KD for 1C5 and 8F3 LGR4 antibodies are shown below in Table 5.” left out

[11] = target: T1, recombinant human LGR4 …; experiment: BLI (Octet QK), biotinylated antibody on streptavidin tips, LGR4-Fc in solution; receptor printed 'Human LGR4' a second time for 8F3, possibly mouse LGR4
Experimental: as §1
as §2, with “Sample curve fits, kinetic rate constants, and KD for 1C5 and 8F3 LGR4 antibodies are shown below in Table 5.” left out

[12] = target: T1, recombinant human LGR4 …; experiment: ELISA, plate coated with 2 or 1 ug/mL hLGR4-Fc, detected with HRP anti-human IgG-CH1
Experimental: (§5) Binding of the humanized anti-LGR4 antibodies 1C5HE and 1C5HG to human and LGR4 was assessed in vitro using an ELISA-based plate binding assay. The assay measured antibody binding to ELISA plate-bound purified recombinant LGR4 ectodomain-IgG-Fc fusion (R&D Systems), with detection of LGR4-bound antibody with horseradish peroxidase-conjugated anti-human IgG-CH1 secondary antibody.

[13] = target: T1, recombinant human LGR4 …; experiment: ELISA, plate coated with 2 ug/mL hLGR4-Fc, detected with HRP anti-human IgG-CH1
Experimental: as §5

B1: anti-LGR4 rat monoclonal antibody 1C5 (antibody, V domains shown)
VH: QVQLQQSGAELVKPGSSVKISCKASGYTFTSNFMHWIKQQPGNGPEWIGWIYPGDGDTEYNQKFNGKATLIADKSSTTAYMQLRSLTSEDSAVYFCARGNSGYNWFAYWGQGTLVTVSS
VL: DIQMTQSPPVLSASVGDRVTLSCKASQNINKNLDWYQQKHGEAPRLLIYYTNNLQTGIPSRFSGSGSGTDYTLTISSLQPEDVATYFCYQYKSGNTFGAGTKLELK
notes: Rat monoclonal antibody purified from hybridoma supernatant; also called 1C5 mAb; biotinylated 1C5
- kon [1]: 438000 M⁻¹ s⁻¹
- kon [2]: 339000 M⁻¹ s⁻¹
- EC50 (read off the curve) [3]: ~0.1 nM
- EC50 (read off the curve) [4]: ~0.1 nM
- Kd [5]: 1.47 nM
- Kd [6]: 1.31 nM
- koff [7]: 0.000635 s⁻¹
- EC50 (read off the curve) [8]: ~0.2 nM

B2: anti-LGR4 rat monoclonal antibody 8F3 (antibody, V domains shown)
VH: B1 VH with N32Y, M34I, P45L, L70F, T77S, Y80D, R84N, G99S, N100K, G102A
VL: B1 VL with Q37H, R45K, T74I, F87Y, K92N, N95P, A99T
notes: Rat monoclonal antibody purified from hybridoma supernatant; also called 8F3 mAb; biotinylated 8F3
- EC50 (read off the curve) [9]: ~0.2 nM
- kon [1]: 397000 M⁻¹ s⁻¹
- EC50 (read off the curve) [3]: ~0.1 nM
- EC50 (read off the curve) [4]: ~0.08 nM
- Kd [5]: 0.47 nM
- Kd [10]: 0.47 nM
- kon [11]: 357000 M⁻¹ s⁻¹

B3: humanized anti-LGR4 antibody 1C5HG (antibody, human IgG1, V domains shown)
VH: EVQLVQSGAEVKKPGESLKISCKGSGYTFTSNFMHWVRQMPGKGLEWIGWIYPGDGDTEYNQKFNGKVTISADKSISTAYLQWSSLKASDTAMYYCARGNSGYNWFAYWGQGTTVTVSS
VL: EIVMTQSPATLSVSPGERATLSCKASQNINKNLDWYQQKPGQAPRLLIYYTNNLQTGIPARFSGSGSGTEFTLTISSLQSEDFAVYYCYQYKSGNTFGQGTKLEIK
notes: VH fused to the human IgG1 constant region, VL fused to the human kappa constant region; recombinant IgG from HEK 293 cells
- binding result [12]: binds

B4: humanized anti-LGR4 antibody 1C5HE (antibody, human IgG1, V domains shown)
VH: QVQLVQSGAEVKKPGASVKVSCKASGYTFTSNFMHWVRQAPGQGLEWIGWIYPGDGDTEYNQKFNGKVTMTRDTSTSTVYMELSSLRSEDTAVYYCARGNSGYNWFAYWGQGTTVTVSS
VL: B3 VL
notes: as for B3
- EC50 (read off the curve) [13]: ~2 nM
